Residues, ends and D or L forms follow the SMILES beside them.
What was measured:
CsgA polymerization = target: T1, CsgA polymerization (Escherichia coli, UniProt P28307); assay: CsgA polymerization, Thioflavin T assay, Tecan plate reader; format: biochemical; conditions: 20 µM ThT, 37°C
T1 construct: made in house; host or cells: E. coli LSR12 (C600::csg), co-expressed with CsgG
Experimental: (§1) CsgA-His6 and CsgG, a lipoprotein that is required for CsgA secretion, were overexpressed in LSR12 (C600::csg). The purification procedure of recombinant CsgA-His6 was performed as previously described with some modifications. The filtrate was incubated with nickel-nitrilotriacetic acid (Ni-NTA) agarose (Invitrogen) for 1 h at 4°C with shaking, centrifuged at 200×g for 5 min and transferred to a polyprep chromatography column (Bio-Rad, Hercules, CA, USA). To confirm protein identity of CsgA-His6, the isolated protein was prepared and subjected to SDS-PAGE as described below, and thereafter the protein was transferred from the gel to a polyvinylidene fluoride (PVDF) membrane (Invitrogen) at 160 mA for 60 min. The band of 15 kDa, corresponding to the molecular weight of CsgA-His6, was excised from the membrane stained with Coomassie Blue and analysed with N-terminal sequence analysis as has been described. Since it has previously been shown that CsgA-His6 has the same polymerizing properties as wild-type CsgA [59], we refer to CsgA-His6 as CsgA.
Purified recombinant monomeric CsgA (10 µM) with or without different concentrations of the peptides LL-37, sLL-37 or VIP was mixed with 20 µM of the fiber-specific fluorescent probe ThT (Sigma-Aldrich). Fluorescence was measured with a Tecan infinite M200 reader (Tecan Nordic AB, Täby, Sweden). The excitation and emission wavelength was 430 and 490 nm, respectively. Measurements were conducted at 37°C every 10 min after shaking the sample for five seconds. Background fluorescence of the peptides themselves was subtracted.

CsgA = assay: CD spectroscopy of CsgA; parameters: species or system Escherichia coli; conditions: 40 µM CsgA alone, 50 mM KPi, 0.02% NaN3, pH 7.2, 60 h at 37°C
Experimental: Samples containing 40 µM CsgA in 50 mM potassium phosphate buffer (KPi) and 0.02% NaN3, pH 7.2, with and without 10 µM LL-37 were incubated for 60 h at 37°C. The samples were then assayed with a Jasco J-810 spectropolarimeter from 190 to 250 nm in a quartz cell with a 1-mm path length at 20°C. The spectrum of buffer alone and LL-37 in buffer was subtracted from the spectra for CsgA alone and for CsgA together with LL-37, respectively.

toll-like receptor 2 = conditions: cytokine induction by Salmonella; ref [31]; cited from earlier work
Source text: In the pathogenesis of infection, curli fimbriae have previously been implicated in the attachment and invasion of host cells, interaction with host proteins and activation of the immune system, [29], [30].

[1] = tested on: E. coli strain No. 12 and isogenic mutants; format: cell-based, Escherichia coli; conditions: bacteria pre-grown planktonically, curli expression suppressed (data not shown)
Experimental: For further investigation, E. coli isolate No. 12 from a child with pyelonephritis was chosen. This was a typical isolate expressing both curli and cellulose as well as type 1 fimbriae and yielding an approximately median level of biofilm as measured on microtiter plates. One-step knockout of bcsA and csgBA was carried out according to the protocol of Datsenko and Wanner with modifications, [50]. The following mutants were constructed using oligos listed in Table 1; WE1 bcsA::Cm, deficient in cellulose production; WE11 csgBA::Cm, deficient in curli production; and WE16 csgBA bscA::Cm, deficient in both cellulose and curli production. Expression of curli and cellulose in strain No. 12 was confirmed by these knockouts. Production of type 1 fimbriae under the culture conditions used for experiments was confirmed by yeast agglutination (see below).
The susceptibility of wild-type and mutant E. coli strains to synthetic LL-37 and mCRAMP (Innovagen AB, Lund, Sweden) was determined using a broth microdilution method. Briefly, bacteria were grown overnight at 37°C on LB plates with or without salt, inhibiting or promoting the formation of biofilm, respectively. Then, bacteria were suspended in PBS and diluted in LB broth without salt in a concentration of 10^5 CFU/ml. The bacterial concentration was verified by viable count after serial dilutions in PBS. Bacteria (90 µl suspension) were grown in 96-well plates in the presence of 10 µl aqueous solution of synthetic LL-37 or mCRAMP in final concentrations ranging from 0.6 µM to 20 µM in 2-fold dilutions. After 20 h, bacterial viability was measured colorimetrically by reduction of Alamar blue (BioSource International, Camarillo, CA, USA) for 1 h at 37°C [57]. The IC50 was determined as the peptide concentration that gave 50% reduction of the absorbance at 570 nm relative to bacteria grown without peptide.

[2] = tested on: curli-mediated biofilm formation by E. coli; assay: Effect on formation of biofilm, crystal violet microtiter plate; format: cell-based, Escherichia coli
Experimental: To measure the ability of the bacteria to adhere and to form biofilm a crystal violet assay in polystyrene microtiter plates (Costar, Corning, NY, USA) was performed. Bacteria were grown in Luria-Bertani (LB) broth without salt for 24 h at 37°C without shaking. Biofilm was then stained with crystal violet (3%). The dye was solubilized with ethanol (95%) and the optical density was measured at 570 nm.
Plates were filled with 90 µL bacterial culture of planktonic cells and 10 µL of aqueous solution of LL-37 in the same concentrations as in the susceptibility assay. As control peptides, sLL-37 (Innovagen AB) and VIP [27] with similar structural properties as LL-37 were utilized. The plates were incubated without shaking at 37°C for 20 h. After incubation, the amount of biofilm formed was determined as described above.

polymeric CsgA = target: T2, polymeric CsgA (Escherichia coli, UniProt P28307); assay: Surface plasmon resonance, polymeric CsgA; conditions: polymeric CsgA immobilized (7000 response units), 0.1 µM peptide, 20 µl/min for 3 min, HBS-EP, Biacore 3000; binding constants not determinable
T2 construct: made in house; host or cells: E. coli LSR12 (C600::csg), co-expressed with CsgG
Experimental: (§2) Binding analysis of LL-37 to both monomeric and polymeric CsgA was performed with surface plasmon resonance (Biacore 3000 instrument; Biacore AB, Uppsala, Sweden). Both monomeric and polymeric CsgA was immobilized on a CM5 sensor chip (Biacore AB) surface by amine coupling. The chip surface was normalized in 70% glycerol and lanes on the chip were activated with injection of 35 µL 0.05 M N-hydroxysuccinimide (NHS)/0.2 M N-ethyl-N′-[3-dimethylamino) propyl]carbodiimide (EDC). Polymeric or monomeric CsgA (1 µM in 10 mM sodium acetate, pH 4.5) was then immobilized on the chip to 7000 response units and 2000 response units, respectively. After immobilization, the lanes were subjected to 60 µL ethanolamine (1 M, pH 8.5) to deactivate remaining activated carboxylic groups. One lane, activated and deactivated, was used as negative control (without addition of CsgA). Standard Biacore HBS-EP (Biacore AB) was utilized as running buffer, and 0.1 µM LL-37, sLL-37 or VIP were injected at 20 µl/min for 3 min. The surface was regenerated after each cycle with 100 mM HCl.

monomeric CsgA = target: T3, monomeric CsgA (Escherichia coli, UniProt P28307); assay: Surface plasmon resonance, monomeric CsgA; conditions: monomeric CsgA immobilized (2000 response units), 0.1 µM peptide, 20 µl/min for 3 min, HBS-EP, Biacore 3000; binding constants not determinable
T3 construct: made in house; host or cells: E. coli LSR12 (C600::csg), co-expressed with CsgG
Experimental: as §2

CsgA fiber formation = assay: CsgA fiber formation, Thioflavin T, confocal microscopy; format: biochemical, Escherichia coli; conditions: CsgA with equimolar peptide (1∶1), 20 µM ThT, 20 h at 37°C; CsgA alone = 1 arbitrary unit; corrected for peptide fluorescence; two experiments
Experimental: as §1
Recombinant monomeric CsgA was mixed with equimolar LL-37, sLL-37 or VIP and 20 µM ThT, and incubated over night at 37°C, washed twice, and suspended in 10 mM Kpi, pH 7.2 before mounting in ProLong Gold antifade mounting medium (Invitrogen). Images were acquired on a Leica TCS SP5 confocal microscope using a 20× objective. Fluorescence intensity was quantified using ImageJ software. The difference in fluorescence intensity of CsgA with and without peptides was calculated and corrected for the contribution of fluorescence from the peptides themselves.

T1 sequence (P28307 21-151): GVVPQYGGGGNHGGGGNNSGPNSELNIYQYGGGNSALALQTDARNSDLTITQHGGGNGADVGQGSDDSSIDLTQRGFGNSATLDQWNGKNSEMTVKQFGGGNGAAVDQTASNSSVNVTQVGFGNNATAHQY
T3 sequence (P28307 21-151): as above
T2 sequence (P28307 21-151): as above

Molecule: CsgA: major curli subunit, recombinant CsgA-His6
- time to stationary phase of CsgA polymerization (CsgA polymerization; 10 µM CsgA alone): approximately 300 min
- solubility of polymeric CsgA (from CD signal amplitude) (CsgA): decreased solubility due to polymerization
- binding to toll-like receptor 2 (toll-like receptor 2): binding of CsgA to toll-like receptor 2

Molecule: CC[C@H](C)[C@H](NC(=O)[C@H](CCCCN)NC(=O)[C@H](CCC(=O)O)NC(=O)CNC(=O)CNC(=O)[C@H](CCCCN)NC(=O)[C@H](CCCNC(=N)N)NC(=O)[C@H](CC(C)C)NC(=O)[C@H](CC(C)C)NC(=O)CN)C(=O)NCC(=O)N[C@@H](CCC(=O)O)C(=O)N[C@@H](CCCCN)C(=O)N[C@@H](CC(C)C)C(=O)N[C@@H](CCCCN)C(=O)N[C@@H](CCCCN)C(=O)N[C@H](C(=O)NCC(=O)N[C@@H](CCC(N)=O)C(=O)N[C@@H](CCCCN)C(=O)N[C@H](C(=O)N[C@@H](CCCCN)C(=O)N[C@@H](CC(N)=O)C(=O)N[C@@H](Cc1ccccc1)C(=O)N[C@@H](Cc1ccccc1)C(=O)N[C@@H](CCC(N)=O)C(=O)N[C@@H](CCCCN)C(=O)N[C@@H](CC(C)C)C(=O)N[C@H](C(=O)N1CCC[C@H]1C(=O)N[C@@H](CCC(N)=O)C(=O)N1CCC[C@H]1C(=O)N[C@@H](CCC(=O)O)C(=O)N[C@@H](CCC(N)=O)C(=O)O)C(C)C)[C@@H](C)CC)[C@@H](C)CC [mCRAMP] (H-GLLRKGGEKIGEKLKKIGQKIKNFFQKLVPQPEQ-OH; N-terminus and C-terminus assumed)
- difference in resistance between the strains [1]: no significant difference in the resistance

Molecule: vasoactive intestinal peptide [VIP]
- reduction of biofilm formation ([2]; 2.5 µM peptide, cellulose-negative, curli-expressing E. coli strain, 37°C, 20 h, two experiments in triplicates): 10%
- biofilm reduction compared with the effect of LL-37 ([2]; 2.5 µM, P = 0.001, t-test): significantly lower reduction than the effect of LL-37
- binding / association and dissociation by SPR (polymeric CsgA): faster dissociation rates than LL-37, indicating a weaker binding to CsgA
- binding / association and dissociation by SPR (monomeric CsgA): faster dissociation rates than LL-37, indicating a weaker binding to CsgA
- inhibition of CsgA polymerization (ThT fluorescence) (CsgA polymerization; 10 µM CsgA with different concentrations of peptide): less pronounced effect on CsgA polymerization than LL-37
- fluorescence relative to CsgA alone (CsgA fiber formation): approximately 0.2 arbitrary units
